Experimental data published in PMC8910529.

Tests used:
[1] = biological target: His598 (UniProt position 598, TSCGCHEAIMA); test: kinetics; details: 20 mM PBS; Ni-reconstituted protein (Nid site occupied, labile Nip removed with phenanthroline), turning over superoxide
[2] = biological target: His598 (UniProt position 598, TYCGCHEAIMA); test: kinetics; details: 20 mM PBS; Ni-reconstituted protein (Nid site occupied, labile Nip removed with phenanthroline), turning over superoxide

Acetyl-coenzyme A synthase, truncated C-terminal fragment ACS-alpha15, EFG-F598H variant (Moorella thermoacetica; F598H;S594_C595insEFG)
pKa [1]: 6.09

Acetyl-coenzyme A synthase, truncated C-terminal fragment ACS-alpha15, YGP-F598H variant (Moorella thermoacetica; S594Y;Y594_C595insGP;F598H)
pKa [2]: 5.87
